Results taken from patent US20260234242A1 (HAINAN SIMCERE ZAIMING PHARMACEUTICAL, published 2026).
Values belong to the binder of their own block, whether it stands above or below them.

Experiments:
[1] = molecular target: T1, human CDH6 on tumor cells (OVCAR3 cells, PA-1 cells) (human, UniProt P55285 54-790); assay: FACS, OVCAR3 cells
T1 sequence: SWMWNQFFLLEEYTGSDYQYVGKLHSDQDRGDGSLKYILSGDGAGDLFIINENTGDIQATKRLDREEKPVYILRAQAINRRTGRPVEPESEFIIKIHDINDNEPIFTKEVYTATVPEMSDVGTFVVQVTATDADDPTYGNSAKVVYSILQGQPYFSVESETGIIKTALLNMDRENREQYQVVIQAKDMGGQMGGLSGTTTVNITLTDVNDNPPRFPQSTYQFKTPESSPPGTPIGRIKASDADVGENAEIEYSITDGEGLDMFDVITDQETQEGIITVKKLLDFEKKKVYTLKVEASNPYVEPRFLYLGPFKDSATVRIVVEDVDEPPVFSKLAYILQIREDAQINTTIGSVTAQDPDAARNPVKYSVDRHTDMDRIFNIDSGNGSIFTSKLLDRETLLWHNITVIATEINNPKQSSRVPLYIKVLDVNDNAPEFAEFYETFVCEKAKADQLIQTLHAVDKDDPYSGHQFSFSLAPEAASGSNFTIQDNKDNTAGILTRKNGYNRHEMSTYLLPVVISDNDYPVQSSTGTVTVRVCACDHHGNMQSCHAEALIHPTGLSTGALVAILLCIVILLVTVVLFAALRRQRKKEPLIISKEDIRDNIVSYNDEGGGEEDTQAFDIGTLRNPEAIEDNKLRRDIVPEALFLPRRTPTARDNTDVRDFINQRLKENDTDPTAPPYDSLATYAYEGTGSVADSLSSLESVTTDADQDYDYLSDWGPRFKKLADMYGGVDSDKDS
Outline: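 OVCAR3 (high CDH6) and PA-1 (moderate CDH6) cells in PBS + 2% FBS were incubated with diluted chimeric antibodies for 1 h at 4° C, then with a further reagent for 1 h at 4° C. After washing, mean fluorescence intensity was read by flow cytometry and EC50 values came from curve fitting.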

[2] = molecular target: T2, his-tagged human CDH6 extracellular region protein (hCDH6 ECD-his) (human, UniProt P55285 19-615); assay: ELISA, coated antigen
T2 construct: also called Human CDH6-his; hCDH6-his; not shown: his tag
T2 sequence: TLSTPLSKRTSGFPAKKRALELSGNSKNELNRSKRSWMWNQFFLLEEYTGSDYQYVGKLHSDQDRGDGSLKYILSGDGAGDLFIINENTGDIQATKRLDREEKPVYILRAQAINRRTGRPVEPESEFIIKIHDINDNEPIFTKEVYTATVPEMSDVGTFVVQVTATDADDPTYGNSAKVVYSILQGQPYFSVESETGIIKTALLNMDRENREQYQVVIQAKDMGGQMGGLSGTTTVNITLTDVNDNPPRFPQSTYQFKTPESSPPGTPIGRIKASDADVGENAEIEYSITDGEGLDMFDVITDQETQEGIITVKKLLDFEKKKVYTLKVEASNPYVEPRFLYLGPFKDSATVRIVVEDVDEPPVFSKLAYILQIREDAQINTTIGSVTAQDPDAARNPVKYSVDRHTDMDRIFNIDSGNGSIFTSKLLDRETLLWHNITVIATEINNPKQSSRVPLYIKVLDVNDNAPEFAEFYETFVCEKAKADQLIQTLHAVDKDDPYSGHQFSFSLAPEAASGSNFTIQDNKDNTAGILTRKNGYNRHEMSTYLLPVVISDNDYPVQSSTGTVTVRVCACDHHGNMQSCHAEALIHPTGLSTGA

- EC50 [1]: 0.68 nM
- Max MFI [1]: 14100 MFI
B1: CHI-CDH6-6 (antibody, human IgG1, kappa, V domains shown)
VH: EVQLQQSGPELVKPGDSVKMSCKASGYTFTDYYMAWVRQSHRKSLEWIGYIFPNSGGTDYSQKFKGKATLTVDKSSSTVYMELHSLTSEDSAVYYCARELGADYGDYYAMDHWGQGTSVSVSS
VL: DIQMTQSPASLSASVGETVTITCRASENIDSYLAWYQQKQGKSPQLLVYSATLLADGVPSRFSGSGSGTQYSLKINSLKSEDVARYYCQHYYRTPPTFGSGTKLEIKR
notes: also called CHI-hCDH6-6; chimeric antibody of murine CDH6-6

- EC50 [2]: 0.029 nM
- Max OD450 [2]: 2.61 OD450
B2: hCDH6-1-H2L3 (antibody, V domains shown)
VH: EVQLVQSGAEVKKPGSSVKVSCKASGYTFTNYWMHWVRQAPGQGLEWMGDIDPSHSETHYTQKFKDRVTITVDKSTSTAYMELSSLRSEDTAVYYCARGDLGRFDYWGQGTTVTVSS
VL: DIQMTQSPSSLSASVGDRVTITCRASESVSIHGTHLMHWYQQKPGKPPKLLIYAASNLESGVPSRFSGSGSETDFTFTISSLQPEDIATYYCQQSFEDPWTFGGGTKVEIK
notes: Humanized

- EC50 [1]: 0.56 nM
- Max MFI [1]: 14300 MFI
B3: hCDH6-6-H2L2 (antibody, V domains shown)
VH: EVQLVQSGAEVKKPGASVKVSCKASGYTFTDYYMAWVRQAPGQGLEWMGYIFPNSGGTDYSQKFKGRVTLTVDKSTSTVYMELSSLRSEDTAVYYCARELGADYGDYYAMDHWGQGTTVTVSS
VL: DIQMTQSPSSLSASVGDRVTITCRASENIDSYLAWYQQKPGKSPKLLVYSATLLADGVPSRFSGSGSGTDYTLTISSLQPEDFATYYCQHYYRTPPTFGQGTKLEIK
notes: Humanized

- EC50 [2]: 0.032 nM
- Max OD450 [2]: 2.59 OD450
B4: CHI-CDH6-1 (antibody, human IgG1, kappa, V domains shown)
VH: QVQLQQPGAELVRPGSSVKLSCKASGYTFTNYWMHWVKQRPIEGLEWIGDIDPSHSETHYTQKFKDKATLTVDKSSSTAYMQLSSLTSEDSAVYYCARGDLGRFDYWGQGTTLTVSS
VL: DIVLTQSPASLAVSLGQRATISCRASESVSIHGTHLMHWYQQKSGQPPKLLIYAASNLESGVPARFSGSGSETDFTFNIHPVEEEDAATYFCQQSFEDPWTFGGGTKLEIKR
notes: also called CHI-hCDH6-1; CH1-CDH6-1
